Experimental data: paper PMC9231606, “Membrane insertion mechanism of the caveola coat protein Cavin1” (Proceedings of the National Academy of Sciences of the …, 2022)

Target: the molecule itself
Assay: mass photometry; sample 25 to 100 nM in a gasket well on glass coverslips, acquisition for 60 s; mass from contrast comparison with bovine serum albumin calibrants

B1: Cavin1 (1–190) (domain or fragment, UniProt O54724 1-190, looked up)
chain: MEDVTLHIVERPYSGFPDASSEGPEPTQGEARATEEPSGTGSDELIKSDQVNGVLVLSLLDKIIGAVDQIQLTQAQLEERQAEMEGAVQSIQGELSKLGKAHATTSNTVSKLLEKVRKVSVNVKTVRGSLERQAGQIKKLEVNEAELLRRRNFKVMIYQDEVKLPAKLSVSKSLKESEALPEKEGDELGE
notes: Cavin1, residues 1 to 190 (DR1 1–43, HR1 45–155, DR2 156–190); By mass photometry it was detected as trimers and also as monomers; also called N-terminal part (residues 1 to 190); DR1–HR1–DR2; source: E. coli Rosetta pLysS or BL21(DE3)pLysS, purified (TALON Superflow, gel filtration on Sephacryl S-300 HR)
For B1, which “stoichiometry N” value is on record?
Its value is 3.
